Assay results: the nanobody polyreactivity screen of Harvey et al. (2022)

Test: yeast display, Sf9 membrane polyspecificity reagent, FACS + sequencing; frameworks hold sequencing errors
Procedure, shortened: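 Polyreactivity labels are assigned by the sorting gate from which each nanobody was recovered. The gates were low and high (top ~1%), set on anti-HA fluorescence for expression and streptavidin fluorescence for reagent binding. Before sorting, galactose-induced (36–48 hours) yeast display cells were stained for 1 hour at 4 °C with 10% biotinylated, detergent-solubilized Sf9 membrane reagent.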

Sequence | polyreactivity (PSR sort gate)
QVQLVESGGGLVQAGGSLRLSCAASGRTFYNNAMGWYRQAPGKERELVATINNRGGTTYYADSVKGRFTISRDNAKNTVYLQMNSLKPEDSAVYYCAKSAQRYSYRYYYWGQGTQVTVSS | high polyreactivity
QVQLVESGGGLVQAGGSLRLSCAASGRTFYNYAMGWYRQAHGKERELVAAIDWGSDSTYYADYVKGRFTISRDNANNTVYLQMNRLKPEDTAVYYCAAYLVSVNSRTYDYWGQGTQVTVSS | low polyreactivity
QVQLVESGGGLVQAGGSLRLSCAASGRTFYNYAMGWYRQAPGKEREFVAAISSSGGSTYYADSVKGRFTISRDNAKNTVYLQMNSLKPEDTAVYYCAAYYISFDYWGQGTKVTVSS | high polyreactivity
QVQLVESGGGLVQAGGSLRLSCAASGRTFYNYAMGWYRQAPGKERELVATINRGVSTNYADSVKGRFTISRDNEKNTVYLQMNSLKPEDTAVYYCAARKRPPYGYGYWGQGTQVTVSS | high polyreactivity
QVQLVESGGGLVQAGGSLRLSCAASGRTFYPNAMGWYRQAPGKERELVAAISWSGGSTYYADSVKGRFTISRDNAKNTVYLQMNSLKPEDTAVYYCNARYLYWALSYDYWGQGTQVTVSS | low polyreactivity
QVQLVESGGGLVQAGGSLRLSCAASGRTFYPNAMGWYRQAPGKERELVAAITRSGGRTYYADSVKGRFTISRDNAKNTVYLQMNSLKPEDTAVYYCNADLYYHYYKYEYWGQGTQVTVSS | low polyreactivity
QVQLVESGGGLVQAGGSLRLSCAASGRTFYPNTMGWYRQAPGKERELVATITRSGGNTYADSVKGRFTISRDNAKNTVYLQMNSLKPEDTAVYYCNADQRRSYWLVSQRYDYWGQGTQVTVSS | low polyreactivity
QVQLVESGGGLVQAGGSLRLSCAASGRTFYPNVMGWYRQAPGKERELVAAISRGGSTYYADSVKGRFTISRDNAKNTVYLQMNSLKPEDTAVYYCAATHYGHSISYWFDYWGQGTQVTVSS | high polyreactivity
QVQLVESGGGLVQAGGSLRLSCAASGRTFYPNVMGWYRQAPGKERELVAAITSGGSTYYADSVKGRFTISRDNAKNTVYLQMNSLKPEDTAVYYCAVAYAGGGSRKYDYWGQGTQVTVSS | low polyreactivity
QVQLVESGGGLVQAGGSLRLSCAASGRTFYPYAMGWYRQAPGKERELVAAIDYSSATTYYADSVKGRFTISRDNAKNTVYLQMNSLKPEDTAVFYCARVGIGVGWTKLNYWGQGTQVTVSS | low polyreactivity
QVQLVESGGGLVQAGGSLRLSCAASGRTFYPYAMGWYRQAPGKERELVAAISWNGGRTYYADSVKGRFTISRDNAKNTVYLQMTSLKPEDTAVYYCAADTAYYGFDYWGQGTQVTVSS | low polyreactivity
QVQLVESGGGLVQAGGSLRLSCAASGRTFYPYAMGWYRQAPGKERELVARITSGGSTYADSVKGRFTISRDNAKNTVYLQMNSLKPEDTAVYYCNTDGYLLSRYPYSVQLYEYWGQGTQVTVSS | high polyreactivity
QVQLVESGGGLVQAGGSLRLSCAASGRTFYPYAMGWYRQAPRKERELVAAISRSGGSTYADSVKGRFTISRDNAKNTVYLQMNSLKREDTAVYYCATRRKTYLSFNYDYWGQGTQVTVSS | low polyreactivity
QVQLVESGGGLVQAGGSLRLSCAASGRTFYRNAMGWYKQAPGKERELVAAISRSGGSTYYADSVKGRFTISRDNAKNTVYLQMNSLKPEDTAVYYCNKRYPLGTEYYYWGLGTQVTVSS | high polyreactivity
QVQLVESGGGLVQAGGSLRLSCAASGRTFYRNAMGWYRQAPGKERELVAAISSDDSTNYADSVKGRFTISRDNAKNTVYLQMNSQKPEDTAVYYCNADYYYGYEYDYWGQGTQVTVSS | low polyreactivity
QVQLVESGGGLVQAGGSLRLSCAASGRTFYRNAMGWYRQAPGKERELVAAISSRGGSTYYADSVKGRFTISRDNAKNSVYLQMNSLKPEDTAVYYCAATYGYGGDYDYWGQGTQVTVSS | high polyreactivity
QVQLVESGGGLVQAGGSLRLSCAASGRTFYRNAMGWYRQAPGKERELVASIRRNGGSTYYADSVKGRFTISRDNAKNTVYLQMNSLKPEDTAVYYCAARSTRRRIYGYWGQGSQVTVSS | high polyreactivity
QVQLVESGGGLVQAGGSLRLSCAASGRTFYRNAMGWYRQAPGKERELVATITRGGSTNYADSVKGRFTISRDNAKNTVYLQMNSLKPEDTAVYYCAAAQPGTNAYRVGSWGQGTQVTVSS | high polyreactivity
QVQLVESGGGLVQAGGSLRLSCAASGRTFYRNAMGWYRQATGKERELVAAISRGDSTYYADSVKGRFTISRDNAKKTVYLQMNSLKPEDTAVYYCAKRARRIGDVNMGSWGQGTQVTVSS | low polyreactivity
QVQLVESGGGLVQAGGSLRLSCAASGRTFYRNTMGWYRQAPGKERELVAAITRSGGSTYYADSVKGRVTISRDNAKNTVYLQMNSLKPEDTAVYYCAASRTYYAPYGYWGQGTQVTVSS | high polyreactivity
QVQLVESGGGLVQAGGSLRLSCAASGRTFYRSALVWYRQAPGKERELVAAISYNGGSTFYADSVKGRFTISRDNAKYTVYLQMNSLKPEDTAVYYCAAGPRGTGKYYWGQGTQVTVSS | high polyreactivity
QVQLVESGGGLVQAGGSLRLSCAASGRTFYRYAMGSYRQAPGKEREFVAVISTDGSSTYYADSVKGRFTISRDNAKNTVYLQMNSLKPEDTAVYYCNKYVYGHKYGYRYSGVQDYYYWGQGTQVTVSS | high polyreactivity

Sequence | polyreactivity (PSR sort gate)
QVQLVESGGGLVQAGGSLRLSCAASGRTFYRYAMGWYRQAPGKEREFVAAISNGGSNTRYADSVKGRFTISRDNAKNTVYLQMNSLKPEDTAVYYCAADYKRNQEVDYWGQGTQVTVSS | high polyreactivity
QVQLVESGGGLVQAGGSLRLSCAASGRTFYRYAMGWYRQAPGKERELVAAISSGGSTYYADSVKGRFTISRDNAKNTVYLQMNSLKPEDTAVYYCNADYGRRNHMDYWGQGTQVTVSS | low polyreactivity
QVQLVESGGGLVQAGGSLRLSCAASGRTFYRYAMGWYRQAPGKERELVAAISYSGGSTYYADSVKGRFTISRDNAKNTVYLQMNSLKPEDTAVYYCNARPVKASYVGYNYWGQGTQVTVSS | high polyreactivity
QVQLVESGGGLVQAGGSLRLSCAASGRTFYRYAMGWYRQAPGKERELVAAITTSGGSTYYADSVKGRFTISRDNAKNTVYLQMNSLKPEDTSVYYCSATYYGYHIRDDYWGQGTQVTVSS | low polyreactivity
QVQLVESGGGLVQAGGSLRLSCAASGRTFYRYAMGWYRQAPGKERELVASISSGGSTDYADSVKGRFTISRDNAKNTVYLQMNSLKPEDTAVYYCNAEIVGFWTSYDYWGQGTQVTVSS | low polyreactivity
QVQLVESGGGLVQAGGSLRLSCAASGRTFYRYAMGWYRQAPGKERELVASITRRGGNTYYADSVKGLFTISRDNAKNTVYLQMNSLKPEDTAVYYCAAQSLHPGNWGQGTQVTVSS | high polyreactivity
QVQLVESGGGLVQAGGSLRLSCAASGRTFYRYAMGWYRQAPGKERELVATINWTSGSTNYADSVKGRFTISRDNAKNTVYLQMNSLKPEDTAVYYCAARGPVGYGWRYRPWHDYWGQGTQVTVSS | high polyreactivity
QVQLVESGGGLVQAGGSLRLSCAASGRTFYRYAMGWYRQAPGNERELVAAISYSTTRTYYADSVKGRFTISRDNAKNTVYLQMNSLKPEDTAVYYCAAYGWTRFGYDYWGQGTQVTVSS | high polyreactivity
QVQLVESGGGLVQAGGSLRLSCAASGRTFYSNAMGWYRQAPGKERELVAAISRRGGRTYYADSVKGRFTISRDNAKNTVYLQMNSLKPEDTAVYYCAADAYLYQPEDYYYWGQGTQVTVSS | high polyreactivity
QVQLVESGGGLVQAGGSLRLSCAASGRTFYSNAMGWYRQAPGKERELVAAISSSGARTYYADSVKGRFTISRDNAKNTVYLQMNSLKPEDTAVYYCNAPTQYRYYWGQGTQVTVSS | high polyreactivity
QVQLVESGGGLVQAGGSLRLSCAASGRTFYSNAMGWYRQAPGKERELVAAITFGGGSTYYADSVKGRFTISRDNAKNTVYLQMNSLKPEDTAVYYCAAEGYKYRFYYWGQGTQVTVSS | low polyreactivity
QVQLVESGGGLVQAGGSLRLSCAASGRTFYSNAMGWYRQAPGKERELVATISSSGGSTYYADSVKGRFTISRDNAKNTVYLQMNSLKPEDTAVYYCAADPSGDYWGQGTQVTVSS | low polyreactivity
QVQLVESGGGLVQAGGSLRLSCAASGRTFYSNAMGWYRQAPGKERELVATITLSGGSTDYADSVKGRFTISRDNAKNTVYLQMNSLKPEDTAVYYCNADTDVHLIMGYWGQGTQVTVSS | low polyreactivity
QVQLVESGGGLVQAGGSLRLSCAASGRTFYSNTMGWYRQSPGKERELVAAIDWSGGRTYYADSVKGRFTISRDNAKNTVYLQMHSLKPEDTAVYYCNTVGYSLRLRTGGYWGQGTQVTVSS | high polyreactivity
QVQLVESGGGLVQAGGSLRLSCAASGRTFYSYAKGWYRQAPGKERELVASITSTGSTYYADSVKGRFTISRDNAKNTVYLQMNSLKPEDTAVYYCAARRQPRYSQRSTYYYWGQGTQVTVSS | high polyreactivity
QVQLVESGGGLVQAGGSLRLSCAASGRTFYSYAMGWYRQAPGKERELVAAINSGGDTYYADSVKGRFTISRDNAKNTVYLQMNSLKPEDTAVYYCAADYYWEMDTWGQGTQVTVSS | low polyreactivity
QVQLVESGGGLVQAGGSLRLSCAASGRTFYSYAMGWYRQAPGKERELVAAISSGGTTYYADSVKGRFTISRDNAKNTVYLQMNSLKPEDTAVYYCATSRAWRYRSYYWGQGTQVTVSS | high polyreactivity
QVQLVESGGGLVQAGGSLRLSCAASGRTFYSYAMGWYRQAPGKERELVAAISWNGGSTYYADSVKGRFTISRDNAKNTVYLQMNSLKPEDTAVYYCAAVPLRNRWPNSWPALDYWGQGTQVTVSS | high polyreactivity
QVQLVESGGGLVQAGGSLRLSCAASGRTFYSYAMGWYRQAPGKERELVATIRRGGRTNYADSVKGRFTISRDNAKNTVYLQMNSLKPEDTAVYYCAAEDYLSWVTSTYDYWGQGTQVAVSS | low polyreactivity
QVQLVESGGGLVQAGGSLRLSCAASGRTFYSYARGWYRQAPGKERELVAAINSGGDTYYADSVKGRFTISRDNAKNTVYLQMNSLKPEDTAVDYCAADIEVQYITLGVELPYDYWGQGTQVTVSS | low polyreactivity
QVQLVESGGGLVQAGGSLRLSCAASGRTFYTNAMGWYRQAPGKERELVAAITRGGTTYYADSVKGRFTISRDNAKNTVYLQMNSLKPVDTAVYYCAADTESIVATDLIRKYDYWGQGTQVTVSS | low polyreactivity
